According to US11045560B2, “Therapeutic conjugates with sulfated dendrimers for intracellular targeting” (IC DISCOVERY GMBH, priority 2014, dated 2021):
No end group written: not given here. d02 = not defined here

B1: L-asparaginase (protein, UniProt P00805 23-348, looked up)
L-asparaginase 2: LPNITILATGGTIAGGGDSATKSNYTVGKVGVENLVNAVPQLKDIANVKGEQVVNIGSQDMNDNVWLTLAKKINTDCDKTDGFVITHGTDTMEETAYFLDLTVKCDKPVVMVGAMRPSTSMSADGPFNLYNAVVTAADKASANRGVLVVMNDTVLDGRDVTKTNTTDVATFKSVNYGPLGYIHNGKIDYQRTPARKHTSDTPFDVSKLNELPKVGIVYNYANASDLPAKALVDAGYDGIVSAGVGNGNLYKSVFDTLATAAKTGTAVVRSSRVPTGATTQDAEVDDAKYGFVASGTLNPQKARVLLQLALTQTKDPQQIQQIFNQY
notes: enzyme, homotetramer of 4 units of 34 kDa (L-asparaginase 5000E, Medac), without dendrimer
B2: Asp-d13: L-asparaginase conjugated with maleimido dendrimer d13 (conjugate, UniProt P00805 23-348, looked up)
L-asparaginase 2: B1 L-asparaginase 2
modifications: maleimido dendrimer d13 conjugate
B3: Asp-polyglycerolsulfate: L-asparaginase coupled to a polyglycerolsulfate, mean molecular weight 12000 Da, according to WO2011/095311 (conjugate, UniProt P00805 23-348, looked up)
L-asparaginase 2: B1 L-asparaginase 2
modifications: polyglycerolsulfate conjugate, 12000 Da

Columns and labels:
[1] = system: HT29, HepG2, QGP-1, A431, MCF-7, A2780; experiment: Inhibition of cell proliferation measured by MTT test; assay type: cell-based, human
[2] = system: HT29, HepG2, QGP-1, A431, MCF-7, A2780; details: for % uptake: FACS, relative to ICC-d01, range from different cell lines, incubation 24 h, conjugates additionally ICC-labeled, fluorescence-corrected
Procedure: The human cancer cell lines A2780 and QGP-1 are cultured in RPMI medium, with 10% fetal calf serum (FCS), 2% glutamine, and penicillin/streptomycin added. All cells are seeded into medium at 1×10^5 cells/ml, cultured at 37° C. with 5% CO2, and split 1:5 two times a week. The epithelial human cancer cell lines A549, MCF7, HaCaT, and HepG2 are propagated in DMEM medium (PAN Biotech), with 10% fetal FCS, 2% glutamine, and penicillin/streptomycin. Cells are seeded into medium at 1×10^5 cells/ml (37° C. with 5% CO2, split 1:5 two times a week). HT29 cells are cultured in McCoy's medium (PAN biotech), with 10% FCS), 2% glutamine, and penicillin/streptomycin. Cells are seeded into medium at 1×10^5 cells/ml (37° C. with 5% CO2, split 1:10 two times a week). […] Afterwards, cells are fixed with cold acetone, rinsed and covered with 4,6-diamidino-2-phenylindole (DAPI, Abcam) for nuclear counterstain. Image acquisition is performed using a Leica DMRB microscope (Leica). Images are taken with a digital camera (Spot 32, Diagnostic Instruments) with the same exposure time for all pictures. […] This amount and time is sufficient to measure the supernatant after pooling and cell lysis with DMSO.
For FACS studies, 2×10^5 cells/ml cells are cultured in 24-well plates with normal culture medium or medium containing different concentrations of test substances for 3 or 24 hours. Thereafter, cells are washed with PBS and detached with 200 μl/well accutase (PAA) and washed two times with PBS. Cells are fixed with 500 μl 3% paraformaldehyde for 10 min at 4° C., stopped with 2 ml PBS and centrifuged with 250×g, for 10 min at 4° C. Supernatants are removed and cells were suspended in 200 μl PBS with 0.5% bovine serum albumin (Roth).
Fixed cells are kept at 4° C. until analysis in a FACS Calibur instrument (Becton-Dickinson).

[3] = system: HT29, HepG2, QGP-1, MCF-7; experiment: Inhibition of cell proliferation by MTT test, comparison to sulfated polymer; assay type: cell-based, human; details: range from 4 cell lines (Table 8)
Procedure: For cytotoxicty measurements, 2×10^5 cells were incubated with 1 ml culture medium containing increasing concentrations of test substances. After 72 hs treatment, cell number, viability and cell diameter as parameter of apoptotic processes were analyzed in a cell counter and analyzer system (CASY®, Schärfe Systems). In addition, drug cytotoxicity was assessed in vitro using the MTT assay (cellular reduction of 3-(4,5-dimethylthiazol-2-yl)-2,5-diphenyltetrazolium bromide) as a test for metabolic activity of the cells. 1×10^4 cells per well were seeded in 96-well plates in 100 μl culture medium containing increasing concentration of the test substance. 10 μl MTT (5 mg/ml in PBS, obtained from Sigma) was added to each well and the plates were incubated for 4 hrs, 24 hrs, 48 hrs or up to 72 h. The resulting formazan product was dissolved with acid isopropanol and the absorbance at a wavelength of 570 nm (Ex570) was read on a Microplate Spectrophotometer (Anthos htII, Microsystems). In a couple of experiments, medium with test substances was removed after 48 hs, cells were counted and identical cell numbers with new medium without test substances were seeded in new plates. MTT assay was performed after further incubation for 72 hours.
This polymer is functionalized with the linker maleimido-PEG(4)-COOH NHS ester as described in example 2a, and further purified via RP chromatography. […]

QGP-1 tumor cells = experiment: Uptake into QGP-1 cells by FACS in presence of genistein or rifamycin; assay type: cell-based, human; details: for uptake +genistein (%) / uptake +rifamycin (%): relative to without inhibitor; for uptake w/o inhibitor (%): without inhibitor defined as 100%
Procedure: Studies on cellular uptake measured by FACS were conducted as described in example 13. Compound Asp-d13 is incubated at a concentration of 10^−7 M in QGP-1 tumor cells for 3 h and 6 h. Incubation is done in the presence of one of the following two substrates: (1) 0.1 mM genistein, an inhibitor for endocytotic uptake (Rejman et al., Mol. Ther. 2005, 12, 468-474) or (2) 50 mM rifamycin, an inhibitor of uptake via organic anion transporter proteins (OATP; Bi et al., Drug Metab Dispos. 2012, 40, 1085-92).

[4] = range from different cell lines (Table 6)
[5] = range from different cell lines, peptide-dendrimer conjugates (Table 7)

Row | Molecule | IC50 [1, 4] | % uptake [2] | IC50 [1, 5] | further results
1 | DNase | > 2000 nM | 4-12% | – | –
2 | Diphtheria toxin | > 500 nM | 8-10% | – | –
3 | d02-P1: peptide P1 conjugated to maleimido dendrimer d02 (CGMRPEIWIAQELRRIGDEFNA; conjugated to maleimido dendrimer d02; BIM) | – | – | 900 to 2100 nM | –
4 | d02-P5: peptide P5 conjugated to maleimido dendrimer d02 (C(d02)GEEQWAREIGAQLRRMADDLNAQYER-NH2; reading uncertain; also: conjugated via N-terminal Cys thiol to maleimido dendrimer d02) | – | – | 800 to 2000 nM | –
5 | d02-P6: peptide P6 conjugated to maleimido dendrimer d02 (C(d02)GEDIIRNIARHAAQVGASADRSI-NH2; reading uncertain; also: conjugated via N-terminal Cys thiol to maleimido dendrimer d02) | – | – | 1200 to 2300 nM | –
6 | saporin | > 1000 nM | 5-8% | – | IC50 [3]: > 1000 nM
7 | B1 | > 1500 nM | 4-7% | – | uptake into tumor cells ([2]; in words, referring to example 15): do not show uptake into tumor cells
8 | B2 | 10 to 20 nM | – | – | FACS signal in the presence of genistein relative to without inhibitor (QGP-1 tumor cells; 10^−7 M, 3 h and 6 h, 0.1 mM genistein): 80-85%; FACS signal in the presence of rifamycin relative to without inhibitor (QGP-1 tumor cells; 10^−7 M, 3 h and 6 h, 50 mM rifamycin): 37-40%
9 | B3 | – | – | – | uptake +genistein (%) (QGP-1 tumor cells; 3 h, 0.1 mM genistein): 50%; uptake +rifamycin (%) (QGP-1 tumor cells; 3 h, 50 mM rifamycin): 76%; uptake w/o inhibitor (%) (QGP-1 tumor cells; 3 h): 100%; uptake +genistein (%) (QGP-1 tumor cells; 6 h, 0.1 mM genistein): 55%; uptake +rifamycin (%) (QGP-1 tumor cells; 6 h, 50 mM rifamycin): 72%; uptake w/o inhibitor (%) (QGP-1 tumor cells; 6 h): 100%; dependency of uptake on endocytosis (QGP-1 tumor cells; inhibition by genistein, in words): endocytosis could be identified due to inhibition by genistein
